B1: Aquaporin-7 (Homo sapiens), O14520 (parent)
chain: MVQASGHRRSTRGSKMVSWSVIAKIQEILQRKMVREFLAEFMSTYVMMVFGLGSVAHMVLNKKYGSYLGVNLGFGFGVTMGVHVAGRISGAHMNAAVTFANCALGRVPWRKFPVYVLGQFLGSFLAAATIYSLFYTAILHFSGGQLMVTGPVATAGIFATYLPDHMTLWRGFLNEAWLTGMLQLCLFAITDQENNPALPGTEALVIGILVVIIGVSLGMNTGYAINPSRDLPPRIFTFIAGWGKQVFSNGENWWWVPVVAPLLGAYLGGIIYLVFIGSTIPREPLKLEDSVAYEDHGITVLPKMGSHEPTISPLTPVSVSPANRSSVHPAPPLHESMALEHF
partner: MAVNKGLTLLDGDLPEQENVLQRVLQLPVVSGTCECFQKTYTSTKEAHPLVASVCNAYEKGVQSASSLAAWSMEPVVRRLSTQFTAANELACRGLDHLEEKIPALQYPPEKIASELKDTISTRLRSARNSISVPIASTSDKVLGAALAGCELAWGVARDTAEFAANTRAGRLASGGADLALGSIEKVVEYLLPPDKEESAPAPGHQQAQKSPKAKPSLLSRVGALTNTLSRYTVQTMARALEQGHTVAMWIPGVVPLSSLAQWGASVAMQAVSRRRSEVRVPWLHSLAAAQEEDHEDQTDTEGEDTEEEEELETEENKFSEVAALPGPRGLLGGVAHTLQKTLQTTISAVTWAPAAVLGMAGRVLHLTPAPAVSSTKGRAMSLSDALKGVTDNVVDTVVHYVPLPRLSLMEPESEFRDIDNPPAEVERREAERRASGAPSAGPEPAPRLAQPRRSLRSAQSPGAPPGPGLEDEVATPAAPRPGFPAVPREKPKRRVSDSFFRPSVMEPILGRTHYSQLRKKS

Variants of B1 are the subject of this test. As to conditions: with plin1_human PLIN1, O60240.
As for S10A;T11A, the “effect of a mutation on the interaction” value is on record as “disrupting interaction strength”.
